From paper PMC2700083, “A covalent peptide inhibitor of RGS4 identified in a focused one-bead, one compound library screen” (BMC Pharmacology, 2009)

Tests used:
Test in all cases: FCPIA (flow cytometry protein interaction assay, Luminex beads); Gαo affinities for RGS4Δ51N wild type and mutants on beads, with AMF
[1] = target: MBP-RGS4Δ51N with no Cys in the C-terminus (UniProt P49799)
[2] = target: MBP-RGS4Δ51N A148C in the -7C (UniProt P49799)
[3] = target: MBP-RGS4Δ51N with no Cys in the RGS domain (UniProt P49799)
[4] = target: MBP-RGS4Δ51N -7C mutant (all 7 cysteines removed) (UniProt P49799)
[5] = target: MBP-RGS4Δ51N A71C in the -7C (UniProt P49799)
[6] = target: MBP-RGS4Δ51N A95C in the -7C (UniProt P49799)
[7] = target: MBP-RGS4Δ51N A132C in the -7C (UniProt P49799)

Gαo, Alexa Fluor 532-labeled, sequence (P59215 whole entry): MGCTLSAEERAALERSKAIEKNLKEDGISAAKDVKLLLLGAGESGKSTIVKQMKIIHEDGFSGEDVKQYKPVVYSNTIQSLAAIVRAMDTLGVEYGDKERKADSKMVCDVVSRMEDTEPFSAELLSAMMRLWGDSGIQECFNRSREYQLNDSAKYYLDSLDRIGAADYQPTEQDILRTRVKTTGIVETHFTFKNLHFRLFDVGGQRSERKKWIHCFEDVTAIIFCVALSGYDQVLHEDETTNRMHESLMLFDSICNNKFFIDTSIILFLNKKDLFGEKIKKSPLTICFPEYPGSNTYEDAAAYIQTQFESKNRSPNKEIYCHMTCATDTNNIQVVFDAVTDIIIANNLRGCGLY

## Gαo, Alexa Fluor 532-labeled (from UniProt P59215 1-354) (natural protein)
[1]
  Kd: 5 nM
[2]
  Kd: 5.7 nM
[3]
  Kd: 3.9 nM
[4]
  Kd: 8.3 nM
[5]
  Kd: 9.2 nM
[6]
  Kd: 12 nM
[7]
  Kd: 12.5 nM
